Reference: patent US10087225B2, “Formulation of MK2 inhibitor peptides” (MOERAE MATRIX, INC., priority 2015, dated 2018)

What was measured:
Test in all cases: Kinase Profiling Assay
Type in all cases: biochemical
TrkA(h) = TrkA(h) (Homo sapiens, UniProt P04629)
JAK3(h) = target: T1, JAK3(h) (Homo sapiens, UniProt P52333)
T1 sequence (P52333 1-1124): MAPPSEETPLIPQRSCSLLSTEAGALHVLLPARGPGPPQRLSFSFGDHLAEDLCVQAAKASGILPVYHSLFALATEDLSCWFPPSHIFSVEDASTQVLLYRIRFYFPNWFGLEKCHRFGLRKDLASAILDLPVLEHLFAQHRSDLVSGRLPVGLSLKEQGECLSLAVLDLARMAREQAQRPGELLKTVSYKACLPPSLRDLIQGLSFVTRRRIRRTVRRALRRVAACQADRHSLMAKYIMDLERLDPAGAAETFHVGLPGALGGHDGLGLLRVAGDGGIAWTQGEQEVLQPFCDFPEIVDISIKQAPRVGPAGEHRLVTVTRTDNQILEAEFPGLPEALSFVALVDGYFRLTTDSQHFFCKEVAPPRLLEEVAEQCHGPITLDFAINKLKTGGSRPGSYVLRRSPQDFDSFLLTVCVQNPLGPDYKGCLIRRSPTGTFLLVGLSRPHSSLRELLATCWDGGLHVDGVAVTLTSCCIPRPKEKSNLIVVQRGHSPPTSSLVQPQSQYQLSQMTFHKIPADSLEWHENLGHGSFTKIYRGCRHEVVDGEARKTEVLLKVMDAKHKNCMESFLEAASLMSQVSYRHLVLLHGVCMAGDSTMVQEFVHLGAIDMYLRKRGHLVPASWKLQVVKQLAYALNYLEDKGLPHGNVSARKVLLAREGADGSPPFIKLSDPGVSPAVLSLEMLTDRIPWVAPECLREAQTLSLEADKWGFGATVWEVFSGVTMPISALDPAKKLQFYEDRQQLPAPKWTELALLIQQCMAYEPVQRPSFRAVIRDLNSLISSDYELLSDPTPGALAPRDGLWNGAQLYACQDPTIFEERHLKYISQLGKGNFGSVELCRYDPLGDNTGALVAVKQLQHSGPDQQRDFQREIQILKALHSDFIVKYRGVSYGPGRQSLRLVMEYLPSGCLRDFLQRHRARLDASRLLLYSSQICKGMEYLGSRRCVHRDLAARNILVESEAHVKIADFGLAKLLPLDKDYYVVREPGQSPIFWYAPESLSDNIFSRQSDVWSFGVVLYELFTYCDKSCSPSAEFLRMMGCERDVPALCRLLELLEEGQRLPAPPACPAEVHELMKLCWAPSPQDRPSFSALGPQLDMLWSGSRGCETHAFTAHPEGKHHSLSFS

MST1(h) = target: T2, MST1(h) (Homo sapiens, UniProt Q13043); settings: 100 μM
T2 sequence (Q13043 1-487): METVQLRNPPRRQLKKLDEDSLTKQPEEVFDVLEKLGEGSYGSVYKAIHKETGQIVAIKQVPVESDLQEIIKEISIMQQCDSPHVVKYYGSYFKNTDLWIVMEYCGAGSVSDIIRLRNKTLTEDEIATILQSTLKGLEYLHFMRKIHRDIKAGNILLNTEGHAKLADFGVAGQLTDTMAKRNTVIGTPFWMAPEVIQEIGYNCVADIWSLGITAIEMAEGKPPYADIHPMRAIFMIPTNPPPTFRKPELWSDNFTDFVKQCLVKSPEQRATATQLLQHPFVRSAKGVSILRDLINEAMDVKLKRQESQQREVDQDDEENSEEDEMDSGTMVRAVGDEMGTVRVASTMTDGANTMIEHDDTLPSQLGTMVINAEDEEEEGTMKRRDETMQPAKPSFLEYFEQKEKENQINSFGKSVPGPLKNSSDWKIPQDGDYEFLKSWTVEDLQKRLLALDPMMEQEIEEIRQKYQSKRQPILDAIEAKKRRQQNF

Pim-3(h) = Pim-3(h) (Homo sapiens, UniProt Q86V86); settings: 100 μM
Fer(h) = Fer(h) (Homo sapiens, UniProt P16591); settings: 100 μM
Flt3(h) = Flt3(h) (Homo sapiens, UniProt P36888); settings: 100 μM
CK1δ(h) = CK1δ(h) (Homo sapiens, UniProt P48730); settings: 100 μM
Sequence of CK1δ(h) (P48730 whole entry): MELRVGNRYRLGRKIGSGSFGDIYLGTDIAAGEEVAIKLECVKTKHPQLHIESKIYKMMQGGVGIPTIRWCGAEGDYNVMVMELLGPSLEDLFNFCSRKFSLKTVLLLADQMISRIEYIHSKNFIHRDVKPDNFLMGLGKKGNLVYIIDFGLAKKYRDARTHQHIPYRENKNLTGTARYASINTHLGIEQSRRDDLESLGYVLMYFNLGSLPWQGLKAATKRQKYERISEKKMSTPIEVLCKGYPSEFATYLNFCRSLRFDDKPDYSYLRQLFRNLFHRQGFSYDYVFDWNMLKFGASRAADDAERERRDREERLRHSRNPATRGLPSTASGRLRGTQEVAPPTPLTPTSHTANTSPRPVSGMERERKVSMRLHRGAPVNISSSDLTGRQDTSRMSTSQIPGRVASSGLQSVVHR

Sequence of Fer(h) (P16591 whole entry): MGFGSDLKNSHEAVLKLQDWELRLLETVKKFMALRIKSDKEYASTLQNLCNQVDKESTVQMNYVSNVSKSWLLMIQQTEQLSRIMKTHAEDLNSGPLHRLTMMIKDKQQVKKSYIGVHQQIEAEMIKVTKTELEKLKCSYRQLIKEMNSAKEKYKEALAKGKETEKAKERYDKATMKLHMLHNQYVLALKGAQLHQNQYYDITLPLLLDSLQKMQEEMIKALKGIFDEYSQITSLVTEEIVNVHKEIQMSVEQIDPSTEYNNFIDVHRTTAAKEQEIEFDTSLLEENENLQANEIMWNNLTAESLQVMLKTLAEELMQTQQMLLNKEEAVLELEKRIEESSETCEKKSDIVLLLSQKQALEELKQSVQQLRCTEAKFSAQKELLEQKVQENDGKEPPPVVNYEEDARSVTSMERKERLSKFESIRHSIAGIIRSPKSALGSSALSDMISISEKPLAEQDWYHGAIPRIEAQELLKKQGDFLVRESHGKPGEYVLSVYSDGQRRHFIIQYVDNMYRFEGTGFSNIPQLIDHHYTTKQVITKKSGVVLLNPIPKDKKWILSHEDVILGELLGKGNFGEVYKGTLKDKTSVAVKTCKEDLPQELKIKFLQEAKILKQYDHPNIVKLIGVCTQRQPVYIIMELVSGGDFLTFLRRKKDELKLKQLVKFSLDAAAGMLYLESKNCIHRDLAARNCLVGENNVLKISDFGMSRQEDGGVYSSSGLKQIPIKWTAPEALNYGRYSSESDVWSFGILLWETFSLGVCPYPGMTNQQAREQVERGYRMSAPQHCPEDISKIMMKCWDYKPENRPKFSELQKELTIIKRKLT
Sequence of TrkA(h) (P04629 33-796): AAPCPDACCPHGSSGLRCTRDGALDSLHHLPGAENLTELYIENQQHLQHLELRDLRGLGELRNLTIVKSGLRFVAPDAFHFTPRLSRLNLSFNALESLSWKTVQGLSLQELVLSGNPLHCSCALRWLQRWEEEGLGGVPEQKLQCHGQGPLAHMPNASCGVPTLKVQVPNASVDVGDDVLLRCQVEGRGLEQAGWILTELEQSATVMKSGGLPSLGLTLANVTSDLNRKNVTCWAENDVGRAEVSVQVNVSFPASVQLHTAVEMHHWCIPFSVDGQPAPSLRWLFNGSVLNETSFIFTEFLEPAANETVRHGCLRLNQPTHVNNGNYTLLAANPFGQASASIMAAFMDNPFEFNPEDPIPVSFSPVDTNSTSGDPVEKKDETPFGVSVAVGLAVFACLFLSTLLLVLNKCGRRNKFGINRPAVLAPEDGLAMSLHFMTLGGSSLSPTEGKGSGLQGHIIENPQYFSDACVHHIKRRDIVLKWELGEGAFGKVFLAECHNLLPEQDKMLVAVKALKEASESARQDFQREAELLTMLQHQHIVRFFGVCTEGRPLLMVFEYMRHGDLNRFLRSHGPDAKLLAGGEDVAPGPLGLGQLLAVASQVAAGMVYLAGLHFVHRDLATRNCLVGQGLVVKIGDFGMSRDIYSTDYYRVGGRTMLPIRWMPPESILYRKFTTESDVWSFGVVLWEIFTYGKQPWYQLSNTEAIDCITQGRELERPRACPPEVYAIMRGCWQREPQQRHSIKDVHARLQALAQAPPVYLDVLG

| Substance | activity at 100 µM (TrkA(h)) [%] | activity at 100 µM (JAK3(h)) [%] | % activity (MST1(h)) [%] | % activity (Pim-3(h)) [%] | % activity (Fer(h)) [%] | % activity (Flt3(h)) [%] | % activity (CK1δ(h)) [%] | % activity (TrkA(h); 100 μM) [%] | % activity (JAK3(h); 100 μM) [%] |
| --- | --- | --- | --- | --- | --- | --- | --- | --- | --- |
| H-YARAAARQARAKALARQLGVAA-OH [MMI-0100] | 74 | 150 | – | – | – | – | – | – | – |
| YARAAARQARAKALNRQLGVA (Mammalian) [MMI-0200] | – | – | 72 | 94 | 101 | 99 | 92 | – | – |
| HRRIKAWLKKIKALARQLGVAA (Mammalian) [MMI-0500] | – | – | 3 | 37 | 196 | 17 | 78 | 24 | 95 |
